Measured values as given in patent US20040077017A1.

Molecular target: Fc3(1) (human) (UniProt P01860)
Test: Biacore 2000 SPR, Fc3(1) immobilized on CM5 chip, 25 C, HBS

unlabeled, wild-type Z-ABD (from UniProt P19909 254-299) (designed binder)
Kd: 0.09 µM
